According to IntAct's records for PubMed 34039996:

B1: Plexin-A4 (Mus musculus), Q80UG2 (parent)
chain: MKAMPWNWTCLLSHLLVVGMGSSTLLPRQPPQLSQKPSFVTFRGEPAEGFNHLVVDERTGHIYLGAVNRIYKLSSDLKVLVTHQTGPDEDNPKCYPPRIVQTCNEPLASTNNVNKMLLIDYKENRLIACGSLYQGICKLLRLEDLFKLGEPFHKKEHYLSGVNESGSVFGVIVSYSNFDDKLFIATAVDGKPEYFPTISSRKLTKNSEADGMFAYVFHDEFVASMIKIPSDTFTVIPDFDIYYVYGFSSGNFVYFLTLQPEMVSPPGSTTKEQVYTSKLVRLCKEDTAFNSYVEVPIGCERNGVEYRLLQAAYLSKAGAVLGRTLGVRPDDDLLFTVFSKGQKRKMKSLDESALCIFILKQINDRIKDRLQSCYRGEGTLDLAWLKVKDIPCSSALLTIDDNFCGLDMNAPLGVSEMVRGIPVFTEDRDRMTSVIAYVYKNHSLAFVGTKSGKLKKIRVDGPKGNALQYETVQVVDSGPVLRDMAFSKDHEQLYIMSERQLTRVPVESCGQYRSCGECLGSGDPHCGWCVLHNTCTRKERCERSREPRRFASEMKQCVRLTVHPNNISVSQYNVLLVLETYNVPELSAGVNCTFEDLSEMDGLVIGNQIQCYSPAAKEVPRIITENGDHHVVQLQLKSKETGMTFASTSFVFYNCSVHNSCLSCVESPYRCHWCKYRHVCTHDPNTCSFQEGRVKLPEDCPQLLRVDKILVPVEVIKPITLKAKNLPQPQSGQRGYECILNIQGIEQRVPALRFNSSSVQCQNTSYSYEGMEINNLPVELTVVWNGHFNIDNPAQNKVYLYKCGAMRESCGLCLKADPDFECGWCQSPGQCTLRQHCPAHESRWLELSGANSKCTNPRITEIIPVTGPREGGTKVTIRGENLGLEFRDIASHVKVAGVECSPLVDGYIPAEQIVCEMGEAKPSQHAGFVEICVAVCRPEFMARSSQLYYFMTLTLADLKPNRGPMSGGTQVTITGTNLNAGSNVVVMFGSQPCLFHRRSPSYIICNTTSSEEVLDMKVTVQVDRARIRQDLVFQYVEDPTIVRIEPEWSIVSGNTPIAVWGTHLDLIQNPQIRAKHGGKEHINICEVLNATEMTCQAPALALGPDHQSDLTERPEEFGFILDNVQSLLILNKTNFTYYPNPVFEAFSPSGILELKPGTPIILKGKNLIPPVAGGNVKLNYTVLVGEKPCTVTVSDVQLLCESPNLIGRHKVMARVGGMEYSPGMVYIAPDSPLSLPAIVSIAVAGGLLIIFIVAVLIAYKRKSRESDLTLKRLQMQMDNLESRVALECKEAFAELQTDIHELTSDLDGAGIPFLDYRTYTMRVLFPGIEDHPVLRDLEVPGYRQERVEKGLKLFAQLINNKVFLLSFIRTLESQRSFSMRDRGNVASLIMTVLQSKLEYATDVLKQLLADLIDKNLESKNHPKLLLRRTESVAEKMLTNWFTFLLYKFLKECAGEPLFSLFCAIKQQMEKGPIDAITGEARYSLSEDKLIRQQIEYKTLVLSCVSPDNVNSPEVPVKILNCDTITQVKEKILDAIFKNVPCSHRPKAADMDLEWRQGSGARMILQDEDITTKIENDWKRLNTVAHYQVPDGSVVALVSKQVTAYNAVNNSTVSRTSASKYENMIRYTGSPDSLRSRTPMITPDLESGVKLWHLVKNHEHGDQKEGDRGSKMVSEIYLTRLLATKGTLQKFVDDLFETIFSTAHRGSALPLAIKYMFDFLDEQADKHGIHDPHVRHTWKSNCLPLRFWVNMIKNPQFVFDIHKNSITDACLSVVAQTFMDSCSTSEHRLGKDSPSNKLLYAKDIPSYKNWVERYYSDIGKMPAISDQDMNAYLAEQSRMHMNEFNTMSALSEIFSYVGKYSEEILGPLDHDDQCGKQKLAYKLEQVITLMSLDS
B2: Neuropilin-1 (Mus musculus), P97333 (parent)
chain: MERGLPLLCATLALALALAGAFRSDKCGGTIKIENPGYLTSPGYPHSYHPSEKCEWLIQAPEPYQRIMINFNPHFDLEDRDCKYDYVEVIDGENEGGRLWGKFCGKIAPSPVVSSGPFLFIKFVSDYETHGAGFSIRYEIFKRGPECSQNYTAPTGVIKSPGFPEKYPNSLECTYIIFAPKMSEIILEFESFDLEQDSNPPGGMFCRYDRLEIWDGFPEVGPHIGRYCGQKTPGRIRSSSGVLSMVFYTDSAIAKEGFSANYSVLQSSISEDFKCMEALGMESGEIHSDQITASSQYGTNWSVERSRLNYPENGWTPGEDSYKEWIQVDLGLLRFVTAVGTQGAISKETKKKYYVKTYRVDISSNGEDWISLKEGNKAIIFQGNTNPTDVVLGVFSKPLITRFVRIKPVSWETGISMRFEVYGCKITDYPCSGMLGMVSGLISDSQITASNQADRNWMPENIRLVTSRTGWALPPSPHPYTNEWLQVDLGDEKIVRGVIIQGGKHRENKVFMRKFKIAYSNNGSDWKTIMDDSKRKAKSFEGNNNYDTPELRTFSPLSTRFIRIYPERATHSGLGLRMELLGCEVEAPTAGPTTPNGNPVDECDDDQANCHSGTGDDFQLTGGTTVLATEKPTIIDSTIQSEFPTYGFNCEFGWGSHKTFCHWEHDSHAQLRWSVLTSKTGPIQDHTGDGNFIYSQADENQKGKVARLVSPVVYSQSSAHCMTFWYHMSGSHVGTLRVKLRYQKPEEYDQLVWMVVGHQGDHWKEGRVLLHKSLKLYQVIFEGEIGKGNLGGIAVDDISINNHISQEDCAKPTDLDKKNTEIKIDETGSTPGYEGEGEGDKNISRKPGNVLKTLDPILITIIAMSALGVLLGAVCGVVLYCACWHNGMSERNLSALENYNFELVDGVKLKKDKLNPQSNYSEA

Variants of: B1
Settings: with nrp1_mouse Nrp1, P97333

Row | effect of a mutation on the interaction | Variant
1 | with no effect | K343E

Variants of: B2
Settings: with plxa4_mouse Plxna4, Q80UG2

Row | Variant | effect of a mutation on the interaction
2 | E128R | with no effect
3 | H74A | with no effect

Continued, values first:

Row | effect of a mutation on the interaction | Variant
4 | with no effect | S251E
5 | with no effect | A252E
